Drawing on patent publication US6815189B1, “Gene from acremonium chrysogenum encoding a protein with cephalosporin C acetylhydrolase activity and methods of use of such gene” (Antibiotics, S.A.U., priority 1999, dated 2004), this text covers Km and Vmax for one substance.

This data set relates to [H][C@]12SCC(COC(C)=O)=C(C(=O)O)N1C(=O)[C@H]2NC(=O)CCC[C@@H](N)C(=O)O. Briefly: Effect of substrate concentration on CPC-AH B activity (Lineweaver-Burk). In kind it is biochemical, Acremonium chrysogenum. Conditions: other: CPC-AH B vs. CPC, 37.0 °C. The protocol:
To quantify the enzymatic degradation of the CPC, a reaction mixture was prepared, based on that described by Fujisawa et al. (1975, Agric. Biol. Chem. 39: 1303-1309) that contained, in a total volume of 100 μl: Tris-HCl, pH 8.0, 50 mM; CPC, 20 mM and culture supernatant 75 μl. The mixture was incubated for 60 minutes at 37° C. and the reaction was stopped by adding 100 μl of methanol. The proteins precipitated were removed by centrifugation for 5 minutes at 14 000 rev/min in an Eppendorff centrifuge. Production of DAC was analysed by injecting 100 μl of the reaction mixture in an HPLC Beckman System Gold equipped with a μBondapack C18 column. Elution was performed using a mixture of solvents A (10 mM sodium acetate—acetic acid, pH 4.5) and B (100% acetonitrile) using a linear gradient from 0 to 3% of solvent B between the 0 and 2 minutes and constant 3% from minute 2 to 15 at a flow of 1.3 ml/min. The cephalosporins are detected by their absorbance at 260 nm. In these conditions DAC is eluted with a retention time of 3.1 min whereas for CPC this occurs at 8.3 min. Both compounds were identified by co-elution with standard samples of CPC and DAC.
With fractions obtained from ion exchange separation, tests of CPC-AH activity were performed by HPLC, varying the concentration of CPC. […]

Sequence of CPC-AH B (Hapsidospora chrysogenum ATCC 11550) (chain, as listed by the source): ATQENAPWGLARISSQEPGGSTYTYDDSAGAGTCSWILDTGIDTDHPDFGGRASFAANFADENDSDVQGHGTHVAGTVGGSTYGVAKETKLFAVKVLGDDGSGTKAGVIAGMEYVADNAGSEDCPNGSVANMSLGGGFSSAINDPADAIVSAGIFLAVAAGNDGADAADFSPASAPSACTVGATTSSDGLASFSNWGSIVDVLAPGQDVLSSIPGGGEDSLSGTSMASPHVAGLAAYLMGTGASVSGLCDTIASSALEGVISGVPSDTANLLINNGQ

For the substance “CPC-AH B (Hapsidospora chrysogenum ATCC 11550)”, the Km is reported as 33.72 mM and the Vmax is given as 91.95 pKat/mg.
